According to US20260116963A1 (GENERATE BIOMEDICINES, published 2026):

Assays:
human IL-13 [1] = biological target: T1, human IL-13 (human, UniProt P35225 25-146, limits assumed); assay: cell-based or functional assay
human IL-13 [2] = biological target: T1, human IL-13; assay: SPR (Biacore 8K+), antibody captured on anti-human pAb CM4 chip, human IL-13 0.6-10 nM as analyte, 37 C, 1:1 fit
human IL-13 [3] = biological target: T1, human IL-13; assay: SPR (Biacore 8K+), antibody captured, human IL-13 as analyte, 37 C; less than 5% decay in 5,400 s, KD estimated
human IL-13 [4] = biological target: T1, human IL-13; assay: SPR array (Carterra LSA), antibody captured on anti-human pAb HC30M chip, human IL-13 0.05-100 nM as analyte, 25 C, 1:1 fit

T1 sequence (P35225 other isoform, or with tags, fused parts or gaps limits assumed): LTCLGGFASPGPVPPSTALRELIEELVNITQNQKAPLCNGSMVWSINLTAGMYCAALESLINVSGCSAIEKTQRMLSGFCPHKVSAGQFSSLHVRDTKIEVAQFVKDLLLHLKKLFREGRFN

Binder	IC50, HEK-Blue IL-13Ra1/IL-4Ra STAT6-SEAP reporter assay (human IL-13 [1])	Kd (human IL-13 [2])	koff (human IL-13 [2])	kon (human IL-13 [2])	Kd (human IL-13 [3])	Kd (human IL-13 [4])	koff (human IL-13 [4])	kon (human IL-13 [4])
AbD (antibody, human IgG1, kappa, V domains shown) VH: QVTLRESGPALVKPTQTLTLTCTVSGSSLSAYSVNWIRQPPGKALEWLAMIWGDGKVVYNSALKSRLTISKDTSKNQVVLTMTNMDPVDTATYYCAGDGYFPYAMDNWGQGSLVTVSS VL: DIVMTQSPDSLSVSLGERATINCRASKSVDSYGNSYMHWYQQKPGQPPKLLIYLASNLESGVPDRFSGSGSGTDFTLTISSLQAEDVAVYYCQQNNEDPRTFGGGTKVEIKR	0.161 µg/mL				< 0.015 nM			
AbB (antibody, human IgG1, kappa, V domains shown) VH: QVTLRESGPALVKPTQTLTLTCTVSGASLSAYSVNWIRQPPGKALEWLAMIWGDGKIVYNSALKSRLTISKDTSKNQVVLTMTNMDPVDTATYYCAGDGYYPYAMDNWGQGSLVTVSS VL: DIVMTQSPDSLSVSLGERATINCRASKSVDYYGHSYMHWYQQKPGQPPKLLIYLASNLESGVPDRFSGSGSGTDFTLTISSLQAEDVAVYYCQQNNEDPRTFGGGTKVEIKR	0.132 µg/mL	0.0215 nM	1.02e-05 s⁻¹	552000 M⁻¹ s⁻¹				
NB-13 (antibody, human IgG4 S228P, kappa) heavy: QVTLRESGPALVKPTQTLTLTCTVSGFSLSAYSVNWIRQPPGKALEWLAMIWGDGKIVYNSALKSRLTISKDTSKNQVVLTMTNMDPVDTATYYCAGDGYYPYAMDNWGQGSLVTVSSASTKGPSVFPLAPCSRSTSESTAALGCLVKDYFPEPVTVSWNSGALTSGVHTFPAVLQSSGLYSLSSVVTVPSSSLGTKTYTCNVDHKPSNTKVDKRVESKYGPPCPPCPAPEFLGGPSVFLFPPKPKDTLYITREPEVTCVVVDVSQEDPEVQFNWYVDGVEVHNAKTKPREEQFNSTYRVVSVLTVLHQDWLNGKEYKCKVSNKGLPSSIEKTISKAKGQPREPQVYTLPPSQEEMTKNQVSLTCLVKGFYPSDIAVEWESNGQPENNYKTTPPVLDSDGSFFLYSRLTVDKSRWQEGNVFSCSVMHEALHNHYTQKSLSLSLGK light: DIVMTQSPDSLSVSLGERATINCRASKSVDSYGNSFMHWYQQKPGQPPKLLIYLASNLESGVPDRFSGSGSGTDFTLTISSLQAEDVAVYYCQQNNEDPRTFGGGTKVEIKRTVAAPSVFIFPPSDEQLKSGTASVVCLLNNFYPREAKVQWKVDNALQSGNSQESVTEQDSKDSTYSLSSTLTLSKADYEKHKVYACEVTHQGLSSPVTKSFNRGEC						< 0.1 nM		
NB-4 (antibody, human IgG4 S228P, kappa, V domains shown) VH: QVTLRESGPALVKPTQTLTLTCTVSGASLSAYSVNWIRQPPGKALEWLAMIWGDGKIVYNSALKSRLTISKDTSKNQVVLTMTNMDPVDTATYYCAGDGYYPYAMDNWGQGSLVTVSS VL: DIVMTQSPDSLSVSLGERATINCRASKSVDSYGNSFMHWYQQKPGQPPKLLIYLASNLESGVPDRFSGSGSGTDFTLTISSLQAEDVAVYYCQQNNEDPLTFGGGTKVEIKR						13.6 nM	0.000987 s⁻¹	74000 M⁻¹ s⁻¹
NB-6 (antibody, human IgG4 S228P, kappa, V domains shown) VH: QVTLRESGPALVKPTQTLTLTCTVSGASLSAYSVNWIRQPPGKALEWLAMISGDGKIVYNSALKSRLTISKDTSKNQVVLTMTNMDPVDTATYYCAGDGYYPYAMDNWGQGSLVTVSS VL: DIVMTQSPDSLSVSLGERATINCRASKSVDSYGNSFMHWYQQKPGQPPKLLIYLASNLESGVPDRFSGSGSGTDFTLTISSLQAEDVAVYYCQQNNEDPRTFGGGTKVEIKR						3.34 nM	0.000855 s⁻¹	258000 M⁻¹ s⁻¹
NB-5 (antibody, human IgG4 S228P, kappa, V domains shown) VH: QVTLRESGPALVKPTQTLTLTCTVSGASLSAYSVNWIRQPPGKALEWLAMIWGSGKIVYNSALKSRLTISKDTSKNQVVLTMTNMDPVDTATYYCAGDGYYPYAMDNWGQGSLVTVSS VL: DIVMTQSPDSLSVSLGERATINCRASKSVDSYGNSFMHWYQQKPGQPPKLLIYLASNLESGVPDRFSGSGSGTDFTLTISSLQAEDVAVYYCQQNNEDPRTFGGGTKVEIKR						4.24 nM	0.00127 s⁻¹	303000 M⁻¹ s⁻¹
NB-8 (antibody, human IgG4 S228P, kappa, V domains shown) VH: QVTLRESGPALVKPTQTLTLTCTVSGASLSAYSVNWIRQPPGKALEWLAMIWGDGKIVYNSALKSRLTISKDTSKNQVVLTMTNMDPVDTATYYCAGEGYYPYAMDYWGQGSLVTVSS VL: DIVMTQSPDSLSVSLGERATINCRASKSVDSYGNSFMHWYQQKPGQPPKLLIYLASNLESGVPDRFSGSGSGTDFTLTISSLQAEDVAVYYCQQNNEDPRTFGGGTKVEIKR						2.56 nM	0.000674 s⁻¹	259000 M⁻¹ s⁻¹
NB-9 (antibody, human IgG4 S228P, kappa, V domains shown) VH: QVTLRESGPALVKPTQTLTLTCTVSGFSLSAYSVNWIRQPPGKALEWLAMIWGSGKIVYNSALKSRLTISKDTSKNQVVLTMTNMDPVDTATYYCAGDGYYPYAMDNWGQGSLVTVSS VL: DIVMTQSPDSLSVSLGERATINCRASKSVDSYGNSFMHWYQQKPGQPPKLLIYLASNLESGVPDRFSGSGSGTDFTLTISSLQAEDVAVYYCQQNNEDPRTFGGGTKVEIKR						2.41 nM	0.000734 s⁻¹	305000 M⁻¹ s⁻¹
NB-7 (antibody, human IgG4 S228P, kappa, V domains shown) VH: QVTLRESGPALVKPTQTLTLTCTVSGFSLSAYSVNWIRQPPGKALEWLAMIWGDGKIVYNSALKSRLTISKDTSKNQVVLTMTNMDPVDTATYYCAGDGYYPYAMDNWGQGSLVTVSS VL: DIVMTQSPDSLSVSLGERATINCRASKSVDSYGNSFMHWYQQKPGQPPKLLIYLASNLESGVPDRFSGSGSGTDFTLTISSLQAEDVAVYYCQQNNEDPLTFGGGTKVEIKR						8.35 nM	0.000827 s⁻¹	100000 M⁻¹ s⁻¹
NB-11 (antibody, human IgG4 S228P, kappa, V domains shown) VH: QVTLRESGPALVKPTQTLTLTCTVSGASLSAYSVNWIRQPPGKALEWLAMIWGDGTIVYNSALKSRLTISKDTSKNQVVLTMTNMDPVDTATYYCAGDGYFPYAMDNWGQGSLVTVSS VL: DIVMTQSPDSLSVSLGERATINCRASKSVDSYGHSFMHWYQQKPGQPPKLLIYLASNLESGVPDRFSGSGSGTDFTLTISSLQAEDVAVYYCQQNNEDPRTFGGGTKVEIKR						0.97 nM	0.000135 s⁻¹	139000 M⁻¹ s⁻¹
NB-2 (antibody, human IgG4 S228P, kappa, V domains shown) VH: QVTLRESGPALVKPTQTLTLTCTVSGFSLSAYSVNWIRQPPGKALEWLAMIWGDGKIVYNSALKSRLTISKDTSKNQVVLTMTNMDPVDTATYYCAGLGYYPYAMDNWGQGSLVTVSS VL: DIVMTQSPDSLSVSLGERATINCRASKSVDSYGNSFMHWYQQKPGQPPKLLIYLASNLESGVPDRFSGSGSGTDFTLTISSLQAEDVAVYYCQQNNEDPRTFGGGTKVEIKR						6.67 nM	0.000618 s⁻¹	93000 M⁻¹ s⁻¹

Next, values leading:

IC50, HEK-Blue IL-13Ra1/IL-4Ra STAT6-SEAP reporter assay (human IL-13 [1])	Kd (human IL-13 [2])	koff (human IL-13 [2])	kon (human IL-13 [2])	Kd (human IL-13 [3])	Kd (human IL-13 [4])	koff (human IL-13 [4])	kon (human IL-13 [4])	Binder
0.123 µg/mL	0.0162 nM	1.11e-05 s⁻¹	847000 M⁻¹ s⁻¹					AbA (antibody, human IgG1, kappa, V domains shown) VH: QVTLRESGPALVKPTQTLTLTCTVSGFSLSAYSVNWIRQPPGKALEWLAMIWGDGKIVYNSALKSRLTISKDTSKNQVVLTMTNMDPVDTATYYCAGDGYYPYAMDNWGQGSLVTVSS VL: DIVMTQSPDSLSVSLGERATINCRASKSVDSYGRSYMHWYQQKPGQPPKLLIYLASNLESGVPDRFSGSGSGTDFTLTISSLQAEDVAVYYCQQNNEDPRTFGGGTKVEIKR
0.118 µg/mL	0.0273 nM	2.98e-05 s⁻¹	1.09e+06 M⁻¹ s⁻¹					AbC (antibody, human IgG1, kappa, V domains shown) VH: QVTLRESGPALVKPTQTLTLTCTVSGFSLSAYSVNWIRQPPGKALEWLAMIWGDGKIVYNSALKSRLTISKDTSKNQVVLTMTNMDPVDTATYYCAGDGYYPYAMDYWGQGSLVTVSS VL: DIVMTQSPDSLSVSLGERATINCRASKSVDYYGNSYMHWYQQKPGQPPKLLIYLASNLESGVPDRFSGSGSGTDFTLTISSLQAEDVAVYYCQQNNEDPRTFGGGTKVEIKR
					13.6 nM	0.000805 s⁻¹	62000 M⁻¹ s⁻¹	NB-10 (antibody, human IgG4 S228P, kappa, V domains shown) VH: QVTLRESGPALVKPTQTLTLTCTVSGASLSAYSVNWIRQPPGKALEWLAMIWGDGKIVYNSALKSRLTISKDTSKNQVVLTMTNMDPVDTATYYCAGDGYYPYAMDNWGQGSLVTVSS VL: DIVMTQSPDSLSVSLGERATINCRASKSVDYYGNSFMHWYQQKPGQPPKLLIYLASNLESGVPDRFSGSGSGTDFTLTISSLQAEDVAVYYCQQNNEDPLTFGGGTKVEIKR
					1.89 nM	0.00047 s⁻¹	290000 M⁻¹ s⁻¹	NB-3 (antibody, human IgG4 S228P, kappa, V domains shown) VH: QVTLRESGPALVKPTQTLTLTCTVSGASLSSYSVNWIRQPPGKALEWLAMIWGDGKIVYNSALKSRLTISKDTSKNQVVLTMTNMDPVDTATYYCAGEGYYPYAMDVWGQGSLVTVSS VL: DIVMTQSPDSLSVSLGERATINCRASKSVDSYGNSYMHWYQQKPGQPPKLLIYLASNLESGVPDRFSGSGSGTDFTLTISSLQAEDVAVYYCQQNNEDPRTFGGGTKVEIKR
					5.21 nM	0.000601 s⁻¹	117000 M⁻¹ s⁻¹	NB-1 (antibody, human IgG4 S228P, kappa, V domains shown) VH: QVTLRESGPALVKPTQTLTLTCTVSGASLSAYSVNWIRQPPGKALEWLAMIWGDGKIVYNSALKSRLTISKDTSKNQVVLTMTNMDPVDTATYYCAGLGYYPYAMDLWGQGSLVTVSS VL: DIVMTQSPDSLSVSLGERATINCRASKSVDSYGNSFMHWYQQKPGQPPKLLIYLASNLESGVPDRFSGSGSGTDFTLTISSLQAEDVAVYYCQQNNEDPRTFGGGTKVEIKR
					6.09 nM	0.000711 s⁻¹	117000 M⁻¹ s⁻¹	NB-12 (antibody, human IgG4 S228P, kappa, V domains shown) VH: QVTLRESGPALVKPTQTLTLTCTVSGASLSAYSVNWIRQPPGKALEWLAMIWGDGKIVYNSALKSRLTISKDTSKNQVVLTMTNMDPVDTATYYCAGDGYYPWAMDNWGQGSLVTVSS VL: DIVMTQSPDSLSVSLGERATINCRASQSVDSYGNSFMHWYQQKPGQPPKLLIYLASNLESGVPDRFSGSGSGTDFTLTISSLQAEDVAVYYCQQNNEDPRTFGGGTKVEIKR
